The record followed here is patent publication US20050112108.

This data set addresses GAAP-1 (Homo sapiens) (UniProt P15822). Briefly: cell_activity. To be noted: luciferase vs empty vector.

Sequence of GAAP-1 (Homo sapiens) (P15822 other isoform, or with tags, fused parts or gaps): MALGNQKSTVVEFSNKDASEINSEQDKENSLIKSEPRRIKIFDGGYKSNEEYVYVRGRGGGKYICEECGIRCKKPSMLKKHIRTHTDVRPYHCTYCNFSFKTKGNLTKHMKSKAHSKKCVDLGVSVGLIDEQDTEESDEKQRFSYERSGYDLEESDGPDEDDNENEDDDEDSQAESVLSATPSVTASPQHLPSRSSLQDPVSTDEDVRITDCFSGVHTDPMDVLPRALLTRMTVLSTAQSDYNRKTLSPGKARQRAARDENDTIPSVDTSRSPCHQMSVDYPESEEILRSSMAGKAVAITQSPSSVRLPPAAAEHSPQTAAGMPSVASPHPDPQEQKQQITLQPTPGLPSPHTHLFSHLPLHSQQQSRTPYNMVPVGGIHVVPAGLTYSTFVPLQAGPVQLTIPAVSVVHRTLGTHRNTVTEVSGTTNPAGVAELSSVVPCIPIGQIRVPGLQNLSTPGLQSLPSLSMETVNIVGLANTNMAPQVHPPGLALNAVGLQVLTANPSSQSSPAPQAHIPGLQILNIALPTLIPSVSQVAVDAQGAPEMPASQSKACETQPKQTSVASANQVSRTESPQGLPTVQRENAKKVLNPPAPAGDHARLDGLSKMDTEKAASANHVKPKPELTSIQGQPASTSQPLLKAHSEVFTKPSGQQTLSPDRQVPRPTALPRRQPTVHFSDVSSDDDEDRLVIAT

As to IPCS-SV40 chimeric promoter, the activity was 2.5 fold. The same measure, in the same setting: the result for IRF1 promoter luciferase reads 2.5 fold. For p53 promoter luciferase, for the setting “K562 in text, U937 in figure legend”, the activity stood at 2.5 fold.
